Assay results: paper doi:10.1101/2023.02.09.527830

Molecular target: Lassa virus nucleoprotein NP (WT) (Lassa virus (AV strain), UniProt Q9DQX7)
Experiment: native MS

UAGGAAUCU (ssRNA) [9 nt RNA]
binding result: binds

ACACAAAGACCC (ssRNA) [12 nt RNA]
binding result: binds
